Laboratory results reported in patent publication US20200407449A1 (PHARMABCINE, published 2020).

T1: hVISTA-Fc (R&D systems. Cat. No. 7126-B7) (human, UniProt Q9H7M9 33-194)
T1 construct: Bought antigen; also called human VISTA-Fc; VISTA-FC Human
T1 sequence: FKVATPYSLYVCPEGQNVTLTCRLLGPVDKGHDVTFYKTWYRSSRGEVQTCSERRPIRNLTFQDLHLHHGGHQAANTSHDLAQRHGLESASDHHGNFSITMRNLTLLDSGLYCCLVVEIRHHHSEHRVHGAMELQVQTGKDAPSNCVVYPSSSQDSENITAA

B1: anti-VISTA antibody 2B7 (IgG form) (antibody, V domains shown)
VH: QVQLVQSGGGLVKPGGSLRLSCAASGFTFSGSAMHWVRQASGKGLEWVGRIRSKANSYATAYAASVKGRFTISRDDSKNTAYLQMNSLKTEDTAVYYCSRVNSGYYGPDYWGKGTLVTVSS
VL: not shown
B2: anti-VISTA antibody 1B8 (IgG form) (antibody, V domains shown)
VH: QMQLVQSGAEVKKPGSSVKVSCKASGGSSSNYAISWVRQAPGQGLEWMGGIIPIFGTTSYAQKFQGRVTITADGSMSTAYMELSSLRSEDTAVYYCAKGAIEPWPFYFDNWGQGTLVTVSS
VL: QLVLTQPRSVSGSPGQSVTISCTGTNSDVGAYNYLSWYQQLPGRAPKVIIYDVNKRPSGVPDRFSGSRSGKTASLTISGLQAEDEADYYCAAWDDSLNGLVFGGGTKLTVLG
notes: also called Anti VISTA 3.0(1B8); anti-VISTA mAb 1B8
B3: Anti VISTA_B5 (scFv phage clone) (scFv, V domains shown)
VH: QMQLVQSGAEVKKPGSSVKVSCKASGGSSSNYAISWVRQAPGQGLEWMGGIIPIFGTTSYAQKFQGRVTITADGSMSTAYMELSSLRSEDTAVYYCAKGAIEPWPFYFDNWGQGTLVTVSS
VL: QLVLTQPRSVSGSPGQSVTISCTGTNSDVGAYNYLSWYQQLPGRAPKVIIYDVNKRPSGVPDRFSGSRSGKTASLTISGLQAEDEADYYCAAWDDDLNGLVFGGGTKLTVLG
notes: Optimised 1B8 light-chain CDR3 variant, measured as scFv
B4: Anti VISTA_G1 (scFv phage clone) (scFv, V domains shown)
VH: QMQLVQSGAEVKKPGSSVKVSCKASGGSSSNYAISWVRQAPGQGLEWMGGIIPIFGTTSYAQKFQGRVTITADGSMSTAYMELSSLRSEDTAVYYCAKGAIEPWPFYFDNWGQGTLVTVSS
VL: QLVLTQPRSVSGSPGQSVTISCTGTNSDVGAYNYLSWYQQLPGRAPKVIIYDVNKRPSGVPDRFSGSRSGKTASLTISGLQAEDEADYYCAAWDDSLIGHVFGGGTKLTVLG
notes: Optimised 1B8 variant that retains the 1B8 heavy-chain variable region, measured as scFv
B5: Anti VISTA_H2 (scFv phage clone) (scFv, V domains shown)
VH: QMQLVQSGAEVKKPGSSVKVSCKASGGSSSNYAISWVRQAPGQGLEWMGGIIPIFGTTSYAQKFQGRVTITADGSMSTAYMELSSLRSEDTAVYYCAKGAIEPWPFYFDNWGQGTLVTVSS
VL: QLVLTQPRSVSGSPGQSVTISCTGTNSDVGAYNYLSWYQQLPGRAPKVIIYDVNKRPSGVPDRFSGSRSGKTASLTISGLQAEDEADYYCAAWDDNLNGLVFGGGTKLTVLG
notes: as for B4
B6: Anti VISTA_V3_1 (scFv phage clone) (scFv, V domains shown)
VH: QMQLVQSGAEVKKPGSSVKVSCKASGGSSSNYAISWVRQAPGQGLEWMGGIIPIFGTTSYAQKFQGRVTITADGSMSTAYMELSSLRSEDTAVYYCAKGAIEPWPFYFDNWGQGTLVTVSS
VL: QLVLTQPRSVSGSPGQSVTISCTGTNSDVGAYNYLSWYQQLPGRAPKVIIYDVNKRPSGVPDRFSGSRSGKTASLTISGLQAEDEADYYCAAWDDSLYGLVFGGGTKLTVLG
notes: as for B4
B7: Anti VISTA_V3_2 (scFv phage clone) (scFv, V domains shown)
VH: QMQLVQSGAEVKKPGSSVKVSCKASGGSSSNYAISWVRQAPGQGLEWMGGIIPIFGTTSYAQKFQGRVTITADGSMSTAYMELSSLRSEDTAVYYCAKGAIEPWPFYFDNWGQGTLVTVSS
VL: QLVLTQPRSVSGSPGQSVTISCTGTNSDVGAYNYLSWYQQLPGRAPKVIIYDVNKRPSGVPDRFSGSRSGKTASLTISGLQAEDEADYYCAAWDDSLNDLVFGGGTKLTVLG
notes: as for B4
B8: Anti VISTA_V3_3 (scFv phage clone) (scFv, V domains shown)
VH: QMQLVQSGAEVKKPGSSVKVSCKASGGSSSNYAISWVRQAPGQGLEWMGGIIPIFGTTSYAQKFQGRVTITADGSMSTAYMELSSLRSEDTAVYYCAKGAIEPWPFYFDNWGQGTLVTVSS
VL: QLVLTQPRSVSGSPGQSVTISCTGTNSDVGAYNYLSWYQQLPGRAPKVIIYDVNKRPSGVPDRFSGSRSGKTASLTISGLQAEDEADYYCAAWDDSLNVLVFGGGTKLTVLG
notes: as for B4
B9: Anti VISTA_V3_4 (scFv phage clone) (scFv, V domains shown)
VH: QMQLVQSGAEVKKPGSSVKVSCKASGGSSSNYAISWVRQAPGQGLEWMGGIIPIFGTTSYAQKFQGRVTITADGSMSTAYMELSSLRSEDTAVYYCAKGAIEPWPFYFDNWGQGTLVTVSS
VL: QLVLTQPRSVSGSPGQSVTISCTGTNSDVGAYNYLSWYQQLPGRAPKVIIYDVNKRPSGVPDRFSGSRSGKTASLTISGLQAEDEADYYCAAWDDNSDFHVFGGGTKLTVLG
notes: as for B4
B10: Anti VISTA_V3_1 (IgG form) (antibody, V domains shown)
VH: QMQLVQSGAEVKKPGSSVKVSCKASGGSSSNYAISWVRQAPGQGLEWMGGIIPIFGTTSYAQKFQGRVTITADGSMSTAYMELSSLRSEDTAVYYCAKGAIEPWPFYFDNWGQGTLVTVSS
VL: QLVLTQPRSVSGSPGQSVTISCTGTNSDVGAYNYLSWYQQLPGRAPKVIIYDVNKRPSGVPDRFSGSRSGKTASLTISGLQAEDEADYYCAAWDDSLYGLVFGGGTKLTVLG
B11: Anti VISTA_V3_2 (IgG form) (antibody, V domains shown)
VH: QMQLVQSGAEVKKPGSSVKVSCKASGGSSSNYAISWVRQAPGQGLEWMGGIIPIFGTTSYAQKFQGRVTITADGSMSTAYMELSSLRSEDTAVYYCAKGAIEPWPFYFDNWGQGTLVTVSS
VL: QLVLTQPRSVSGSPGQSVTISCTGTNSDVGAYNYLSWYQQLPGRAPKVIIYDVNKRPSGVPDRFSGSRSGKTASLTISGLQAEDEADYYCAAWDDSLNDLVFGGGTKLTVLG
B12: PMC-309.3.3 (antibody, V domains shown)
VH: QMQLVQSGAEVKKPGSSVKVSCKASGGSSSNYAISWVRQAPGQGLEWMGGIIPIFGTTSYAQKFQGRVTITADGSMSTAYMELSSLRSEDTAVYYCAKGAIEPWPFYFDNWGQGTLVTVSS
VL: QLVLTQPRSVSGSPGQSVTISCTGTNSDVGAYNYLSWYQQLPGRAPKVIIYDVNKRPSGVPDRFSGSRSGKTASLTISGLQAEDEADYYCAAWDDNLYGLVFGGGTKLTVLG
B13: PMC-309.3.4w (antibody, V domains shown)
VH: QVQLVQSGAEVKKPGSSVKVSCKASGGSSSNYAISWVRQAPGQGLEWMGGIIPIFGTTSYAQKFQGRVTITADKSTSTAYMELSSLRSEDTAVYYCAKGAIEPWPFYFDNWGQGTLVTVSS
VL: QLVLTQPRSVSGSPGQSVTISCTGTNSDVGAYNYLSWYQQLPGRAPKVIIYDVNKRPSGVPDRFSGSRSGKTASLTISGLQAEDEADYYCAAWDDNLYGLVFGGGTKLTVLG
notes: Heavy chain G-H (framework substituted), wt light chain
B14: PMC-309.3.4SA (antibody, V domains shown)
VH: QVQLVQSGAEVKKPGSSVKVSCKASGGSSSNYAISWVRQAPGQGLEWMGGIIPIFGTTSYAQKFQGRVTITADKSTSTAYMELSSLRSEDTAVYYCAKGAIEPWPFYFDNWGQGTLVTVSS
VL: QSALTQPRSVSGSPGQSVTISCTGTNSDVGAYNYLSWYQQLPGRAPKVIIYDVNKRPSGVPDRFSGSRSGKTASLTISGLQAEDEADYYCAAWDDNLYGLVFGGGTKLTVL
notes: light chain SA; also called PMC-309.3.45A

Each binder was assayed against T1, hVISTA-Fc (R&D systems. Cat. No. …) (assay: Octet (BLI), antibody immobilised on biosensor, antigen in solution).
Procedure: (§1) The binding ability of the screened antibody to the antigen was measured using an Octet (ForteBio). For this purpose, the antibody was immobilized on a biosensor, various concentrations of antigen were added to a 96-well plate, and then the binding ability was measured.

Binder | Kd [nM] | koff [s⁻¹] | kon [M⁻¹ s⁻¹]
B1 | 5.8 | 0.000142 | 24500
B2 | 9.29 | 0.00103 | 111000

The binders below were run against T1, hVISTA-Fc (R&D systems. Cat. No. …) (assay: dissociation rate constant of scFv in the screening of optimised clones; antigen not named).

Binder | koff [s⁻¹]
B3 | 0.000616
B4 | 0.000574
B5 | 0.000285
B6 | 0.000487
B7 | 0.00108
B8 | 0.00127
B9 | 0.00222

The binders below were run against T1, hVISTA-Fc (R&D systems. Cat. No. …) (assay: Octet (BLI), antibody as ligand on biosensor, VISTA-Fc as analyte).
Procedure: as §1
Octet was used to evaluate the binding strength of the optimized anti-VISTA antibody while excluding clones with low productivity therefrom, and the experiment was performed in the same manner as the method presented in Example 6 (Table 11).

Binder | Kd [nM] | koff [s⁻¹] | kon [M⁻¹ s⁻¹]
B2 | 13.6 | 0.00209 | 154000
B10 | 2.86 | 0.00015 | 52500
B11 | 12.8 | 0.00191 | 149000
B12 | 0.516 | 9.56e-05 | 185000
B13 | 0.496 | 9.38e-05 | 189000
B14 | 0.606 | 0.000134 | 225000
